This note sets out measurements from publication PMC5779224 (2017).

B1: AnkB_AI-c (aa 828–852) [human] / AnkB_MBD (AnkB ANK repeats only, aa 28–827) [human] (parent complex)
chain 1: TEKHKLNVPETMTEVLDVSDEEGDD
chain 2: KSDSNASFLRAARAGNLDKVVEYLKGGIDINTCNQNGLNALHLAAKEGHVGLVQELLGRGSSVDSATKKGNTALHIASLAGQAEVVKVLVKEGANINAQSQNGFTPLYMAAQENHIDVVKYLLENGANQSTATEDGFTPLAVALQQGHNQAVAILLENDTKGKVRLPALHIAARKDDTKSAALLLQNDHNADVQSKMMVNRTTESGFTPLHIAAHYGNVNVATLLLNRGAAVDFTARNGITPLHVASKRGNTNMVKLLLDRGGQIDAKTRDGLTPLHCAARSGHDQVVELLLERGAPLLARTKNGLSPLHMAAQGDHVECVKHLLQHKAPVDDVTLDYLTALHVAAHCGHYRVTKLLLDKRANPNARALNGFTPLHIACKKNRIKVMELLVKYGASIQAITESGLTPIHVAAFMGHLNIVLLLLQNGASPDVTNIRGETALHMAARAGQVEVVRCLLRNGALVDARAREEQTPLHIASRLGKTEIVQLLLQHMAHPDAATTNGYTPLHISAREGQVDVASVLLEAGAAHSLATKKGFTPLHVAAKYGSLDVAKLLLQRRAAADSAGKNGLTPLHVAAHYDNQKVALLLLEKGASPHATAKNGYTPLHIAAKKNQMQIASTLLNYGAETNIVTKQGVTPLHLASQEGHTDMVTLLLDKGANIHMSTKSGLTSLHLAAQEDKVNVADILTKHGADQDAHTKLGYTPLIVACHYGNVKMVNFLLKQGANVNAKTKNGYTPLHQAAQQGHTHIINVLLQHGAKPNATTANGNTALAIAKRLGYISVVDTLKVVTEEVTTTTTTI
B2: AnkB_AI-b (aa 865–896) [human] / AnkB 28–847 (MBD + partial AI-c) [human] (parent complex)
chain 1: EDLKELGDDSLPSSQFLDGMNYLRYSLEGGRS
chain 2: KSDSNASFLRAARAGNLDKVVEYLKGGIDINTCNQNGLNALHLAAKEGHVGLVQELLGRGSSVDSATKKGNTALHIASLAGQAEVVKVLVKEGANINAQSQNGFTPLYMAAQENHIDVVKYLLENGANQSTATEDGFTPLAVALQQGHNQAVAILLENDTKGKVRLPALHIAARKDDTKSAALLLQNDHNADVQSKMMVNRTTESGFTPLHIAAHYGNVNVATLLLNRGAAVDFTARNGITPLHVASKRGNTNMVKLLLDRGGQIDAKTRDGLTPLHCAARSGHDQVVELLLERGAPLLARTKNGLSPLHMAAQGDHVECVKHLLQHKAPVDDVTLDYLTALHVAAHCGHYRVTKLLLDKRANPNARALNGFTPLHIACKKNRIKVMELLVKYGASIQAITESGLTPIHVAAFMGHLNIVLLLLQNGASPDVTNIRGETALHMAARAGQVEVVRCLLRNGALVDARAREEQTPLHIASRLGKTEIVQLLLQHMAHPDAATTNGYTPLHISAREGQVDVASVLLEAGAAHSLATKKGFTPLHVAAKYGSLDVAKLLLQRRAAADSAGKNGLTPLHVAAHYDNQKVALLLLEKGASPHATAKNGYTPLHIAAKKNQMQIASTLLNYGAETNIVTKQGVTPLHLASQEGHTDMVTLLLDKGANIHMSTKSGLTSLHLAAQEDKVNVADILTKHGADQDAHTKLGYTPLIVACHYGNVKMVNFLLKQGANVNAKTKNGYTPLHQAAQQGHTHIINVLLQHGAKPNATTANGNTALAIAKRLGYISVVDTLKVVTEEVTTTTTTITEKHKLNVPETMTEVLDVSD
B3: AnkB_AI-a peptide (aa 1623–1635) [human] / AnkB_MBD (AnkB ANK repeats only, aa 28–827) [human] (parent complex)
chain 1: HPPIVSEEDISVG
chain 2: B1 chain 2
B4: AnkG linker ΔAI-c (aa 861–920) [rat] / AnkG 38–855 (AnkG MBD-AI-c protein; MBD + partial AI-c) [rat] (parent complex)
chain 1: KASAPEKLSDGEYISDGEEGEDAITGDTDKYLGPQDLKELGDDSLPAEGYVGFSLGARSA
chain 2: KSDANASYLRAARAGHLEKALDYIKNGVDVNICNQNGLNALHLASKEGHVEVVSELLQREANVDAATKKGNTALHIASLAGQAEVVKVLVTNGANVNAQSQNGFTPLYMAAQENHLEVVRFLLDNGASQSLATEDGFTPLAVALQQGHDQVVSLLLENDTKGKVRLPALHIAARKDDTKAAALLLQNDTNADIESKMVVNRATESGFTPLHIAAHYGNINVATLLLNRAAAVDFTARNDITPLHVASKRGNANMVKLLLDRGAKIDAKTRDGLTPLHCGARSGHEQVVEMLLDRAAPILSKTKNGLSPLHMATQGDHLNCVQLLLQHNVPVDDVTNDYLTALHVAAHCGHYKVAKVLLDKKANPNAKALNGFTPLHIACKKNRIRVMELLLKHGASIQAVTESGLTPIHVAAFMGHVNIVSQLMHHGASPNTTNVRGETALHMAARSGQAEVVRYLVQDGAQVEAKAKDDQTPLHISARLGKADIVQQLLQQGASPNAATTSGYTPLHLSAREGHEDVAAFLLDHGASLSITTKKGFTPLHVAAKYGKLEVASLLLQKSASPDAAGKSGLTPLHVAAHYDNQKVALLLLDQGASPHAAAKNGYTPLHIAAKKNQMDIATSLLEYGADANAVTRQGIASVHLAAQEGHVDMVSLLLSRNANVNLSNKSGLTPLHLAAQEDRVNVAEVLVNQGAHVDAQTKMGYTPLHVGCHYGNIKIVNFLLQHSAKVNAKTKNGYTPLHQAAQQGHTHIINVLLQNNASPNELTVNGNTALAIARRLGYISVVDTLKVVTEEIMTTTTITEKHKMNVPETMNEVLDMS

Variants of B1 are the subject of the first assay. Nature of the assay: ITC; parent: 360 nM. In general terms: Isothermal titration calorimetry measures the heat released or taken up as one component is titrated into another.
As for chain 1 M12Q, the Kd (usually the concentration at which binding is half-saturated) was determined as 4.4 µM. Turning to chain 1 L16Q, the Kd was 3.9 µM. Same read-out and setting: with chain 1 N7K the figure was 2.7 µM.

In a further assay the parent is B1. Nature of the assay: ITC; parent: 360 nM. This is another data set of the same source.
For the variant chain 2 N568A, the Kd was determined as 2.4 µM.

Variants of B2 are the subject of another assay. Nature of the assay: ITC; parent: 2.7e+03 nM.
With chain 1 Y22A, the Kd is 16 µM.

Variants of B2 are the subject of the next assay. Nature of the assay: ITC; parent: 2.7e+03 nM. The source holds these as a separate data set.
Regarding chain 2 I240Q, chain 2 L273Q, the Kd was found to be 8.5 µM.

The variants in another assay derive from B3. Nature of the assay: fluorescence polarisation; parent: 7.3e+03 nM.
Take chain 2 R10E, chain 2 R13E: the Kd was found to be 43.8 µM.

Variants of B4 are the subject of the next assay. Nature of the assay: ITC; parent: 1.6e+03 nM.
For chain 2 I240Q, chain 2 L273Q, the Kd turned out to be 3.9 µM. On the same count and under the same terms, with chain 2 F104Q, chain 2 F137Q the figure was 2.6 µM.
